The data set can be described thus: label from the status in PepcDB records.

For “MWAYLAILAMAYVTYKTKALDIKGIIAALLLGVIIVTLGGIIPFIALLAFLVMGTLATKFRYREKRKMGLIDESIRSVGNVLGNGLAPLLFVIVEFIIKQDFGWAGVLSSIAVANADTLASEIGKVFGKNPRIITNLKPAKPGEEGAVSFAGEFAALLGAFVISLFGLSLTEYGIQMIVSVTLAGLIGANIDSLIGATFEKNGYFGNNMTNFIATLLGGLLGMALFLLLV”, the protein production entry is recorded as “failed”.

For “MWDALTNWLNLWVGQIEATVFQNVVLPVVYNLGFGGYAEDAFTGTEWLLVGLVQIAVMVLILGPLERLRPVEVVTDRAAIRTDILYTLIHRLGLFRLAMFFLLAPLMDGIEGHLRLLGWQRVNVEDWWPGVTSIPLISFSLYLALFDLLDYWYHRLSHTYRWWWSLHAVHHSQRQMTLWSDNRNHLLDDILRDFVFAAVALAVGVEPSQYVLLVALSQLLQSLQHANLRLHFGWLGERLLISPRFHRTHHAVGLGHEKRATAEKPARLGGCNYGVIFPWWDMLFGTADFTDVYHPTGIRDQMPPPAGRARSYGDGFLSQQWLGIKRLLRLG”, the protein production result is “failed”. In the case of “MWRSCLRLRDGGRRLLNRPAGGPSASMSPGPTIPSPARAYAPPTERKRFYQNVSITQGEGGFEINLDHRKLKTPQAKLFTVPSEALAIAVATEWDSQQDTIKYYTMHLTTLCNTSLDNPTQRNKDQLIRAAVKFLDTDTICYRVEEPETLVELQRNEWDPIIEWAEKRYGVEISSSTSIMGPSIPAKTREVLVSHLASYNTWALQGIEFVAAQLKSMVLTLGLIDLRLTVEQAVLLSRLEEEYQIQKWGNIEWAHDYELQELRARTAAGTLFIHLCSESTTVKHKLLKE”, the protein production result is given as “failed”. To “MWVQTKANEDAAPMSERFTLVLLTHEAKALAQRALRYYSSFACSILVLDSSEKADESLARQFPKVDYRHVPQFSRQDQQGKLTYGVGLVDTPYLAIASDTDFLIADGISAALAFLDAHPDYAVCHGYGLMYSARVLETSYYLRDRKGPEDFAAANGRERIMSFMGHYLSPFNAVTRTDVLRQWYSQLPPAVSTEWLDIGYAFFLLATAKARILPVPFIVREANREALERTARIQALLSSKDAGSLAQHQQFAEFLATLPHNCEGPDAQQMKQLALDSFAALAECLESGRSLKGVMIFRSTWSEVGKDPVRAFGSEQFVEMPFYNQPMFDLLTQIEFLVHAMPAGRLQLNELEGVLLKQEELLRVHSNDTARTLRSRLWEAMALNLFNFTVVKRLAESMRDTDEVEVFRELQEWAARLKALPATDSSALFANTQSGQLFSWLEGRGPKPGQFKSIAHLLGRRAGGPQFQILLLDLDADMIKLQATFDSLMANHCKAFKLVVLTTGDLPAMTTAQDTVHFVKVSQGNYIERLNQLVAQSTAHWVLLMEAGDQLTASGLLRASLELLGAEGIRAVAMDEVQRQADGTLRHVFRPGVNLDLLQSAPNLMARHWLLHREVLLQAGGFNREFARAVELDLVLRLIEDGGLAGLAHLAEPLLICQAAPAGENAEERQVLSRHLANRGYRAQVSSAQPGTYQIDYQHAERPLVSIILPSQDNFAELQRCLVSVLQRTRYQRYEVLIAENHSQNAELDSWLASLERQGERIRVLRSGQRVSTSALHNAACAEAKGEYLLLLSADAEVVNANWIDSLLNQVQRPEIGIVGARLVNERGMTTQAGLILGLNGQLGAAFAGEAKDAPGYMNSLWVEKNYSAVSGVCLMIAKALFEAVGGLDEEHFDQAFADVDLCLKVADAGYLTVLTPQAQVMHPGTLAQDPQALAALKDKWAARFAQDTAYNQNLALTGKGFALGTASRVDWQQLLSN” belongs “failed”; to “MWYPLAAMKGVLEALHQGDYDTAIDLLTRKALFGREREAKEAWLLLAEVYALYGEEGLEKAHHALEEAYALGGLEYDPLYRSLLAELLALEGRPEREVLPLFLPSRDPRVRYHQAQALFYLGRLEEALEVLEAGLPPHLAWRAEGLKGRILERLGRHGEAALAYERGAELALGLERYWLLLDAAAMWLEAGEGERALLALKEAEAAVGEEDPEDAATRHYLLARAHLLLGNPGLALEEIRKALALEEESGHKAYGTPLVEGQALLQLGRYEEAMASFREALARADAGERPHVLHEMGVAALDHGAYPEAEEHLRALVREEGYPYLAQAYADLAEALYRQGRYQEAEAAAREAVARGAVAAGELVLGHVAYDLLHLEEALEHYRKAAESAEEGSREWVGAQEMVVDTLAQLGYRFPEEMVRRGQAVLPYLHPADEWHAALTAYVERAQALLREGKRLN”, “failed”; to “MYAAVEHGPVLCSDSNILCLSWKGRVPKSEKEKPVCRRRYYEEGWLATGNGRGVVGVTFTSSHCRRDRSTPQRINFNLRGHNSEVVLVRWNEPYQKLATCDADGGIFVWIQYEGRWSVELVNDRGAQVSDFTWSHDGTQALISYRDGFVLVGSVSGQRHWSSEINLESQITCGIWTPDDQQVLFGTADGQVIVMDCHGRMLAHVLLHESDGILSMSWNYPIFLVEDSSESDTDSDDYSPPQDGPAAYPIPVQNTKPLLTVSFTSGDISLMNNYDDLSPTVIRSGLKEVVAQWCTQGDLLAVAGMEQQAQLSELPNGPLLKSAMVKFYNVRGEHIFTLDTLVQRPIISICWGHRDSRLLMASGPALYVVRVEHRVSSLQLLCQQAIASTLREDKDVNKLTLPPRLCSYLSTAFIPTIKPPIPDPNNMRDFVSYPSAGNERLHCTMKRTEDDPEVGGPCYTLYLEYLGGLVPILKGRRISKLRPEFVIMDPRTDSKSDEIYGNSLISTVIDSCNCSDSSDIELSDDWAAKKSPKISRSSKSPKLPRISIEARKSPKLPRAAQEISRSPRLPMRKPSMGSPSLTRREFPFEDITQVGSYN”, “failed”. To “MYADEQFKQVFQCIRCAACLNVCPAFQLVGGHVYGHIYTGGIGTILTAFLNSEKDAENPQNLCLQCGKCTEVCAGKLDIPGMILEIRNRIGDQKGLPMTPLEHHHHHH” belongs “failed”; to “MYALVDAVSFYASAEKVFDPSIRNKPVVVLTNNDGCICAVCPIARRLGIPKFIPYFQVKSLLEKHGVVVRSSNYELYADLSERMMNVIGRFCDNQYIYSIDESFLYFDHYESCINDWHEYGHKIRKAIWKETRLPVGVGFGETATLSKAANHAAKKLSGFNGVAVINSAVSRDKILKRMAVDEVWGIGRKISKRLGLEGINNAAQLAEQDPKHIRKQFSVVTERTVNELNGISCLSWDEVKSPKKEIFSTRSFGQRITTKNELRSALVTHAAIVGRKVRRQNSLIKKLMIFASNSPHDDLYYKQSMVFPFIIATENTCEMARAVNQVIDSIYKAGIKFYRCGVGAIELNSKTFIQPDLFMPDHTNSNVMKCLDNVNHRYGDSTLKLAAEGHHEKWQMRRAFLSPQYTSQWRDIPKIQC”, “failed”. With “MYDFKKINNLRGIERETLRVTDCGNLATSNHPDGLGHKLTNNSITVDFSENLLELITKPHDSIDKAIGELYQLSAFTLDNMHSDEIILNTSMPLSANDNDIQEADFGSSNSGRMKRVYRKGLSARYGKIMQIISGIHYNFSFDKDLISNIATNKQVSISDIYFDVLNNYFEFMWLLPYLFGASPICAKTSVKNKPDYLSVLDDKFYVGEYATSLRMSDLGYTSPAQKDLAISYDNVKAYVKDLIQATDDTFADYKRIGLYNSQGQRIQLNDGILQIENEYYSAIRPKQIAKRGERPACALYNRGVEYVEVRVLDVDPFEPVGISKDTALFVEVMLMTCLDKDAKKYHKDIIKQAKQNLTAVAIQGRNPQLKLKKLDDDSEILLKDYALELFDEIEAVAKKMPKEYLDAVEIQKRKVLDISQTPSAKIIELARQHGYKKFILDISRRVSQQFRSYELPAAIVAKLKDQAGQSVAAEKELVANDKISLDEYINRYYKSSKGCC” the entry was “not failed”; with “MYDHILLASDGTEASTNAESHAISLAAEHGAALHVLYVVDEDVYTAYSGDEYVDESEGPEHGLEETGQETLARIQADAEASGVDATTTLKHGRPAESVIETADEADVDLLVLGTKRRPAEYRSLLGSITDKVLRLSERPAVVVKTEVEE”, “failed”. “MYDLRPRTLTFLEVALPPTTDTTPIFSLLFFSQCSVFKGFSRSTSSAEAGGVLGGSTRVLICSVSSLVKIEDCKVKIFDKLSEKAEKVLEIGIGTGPNMRYYAARNSNVTLYGLDPNPKMKKYARKSATKAGLKPKNFRFKQGVGEAIPLKDNSVDAVVATLVLCSVSDVTQTLKEIKRVLRQGGVFIFLEHVAAKDGSFFKRLQKLLDPLQQRLADGCHLARNTRECILEAGFSGGVEVQTFSMYSFPWMTRPHIYGLAYN”: the protein production entry was “not failed”. For “MYEGEIAIGPVHSTMLEPHRLRLFIEDEIVKDAELTIGVNHRGVERLMEGLPVEKACILCEKICGICSHIHLWSAARVAEIGCNIEVPERANHIRIIVEELERLHSHTLLFGHAFEILGHETMSMRCFMLREPIMQVFFEISGSRVHYSCPIIGGIRPRCNISETQISHIHDKISQYEEGLTKFIERMLNDPMIISRVKDVGVMDRKTAAKFHAVGPTARGSNVKSDMRKWGWVPEYDPYDFDEILFDSGDVFARLAVRFYECLESVKIIRQALDALKDTSDKRIYNPNYELNEFKPINCYTEAQRGEQYYSYGLDDEGLVRQAKIRTPTATNLGAMEDIVKGYHVSDAELIIASCDPCFTCTDRLMVLKEPFKK”, the protein production entry is “failed”.

Regarding “MYEHQTYEAILVRMLARVPETIDKREGSLIYDALAPGAAELAQAYAELVVNNNLSFADTASGEFLTRRAAEFGIKRKVATKAWRRGGFLDSNNALLNIPLGSRYSIGGLNYTAIEQISTGAYVLECETAGTAGNQQFGDLLPIAYVNSLARAELTEVLVPGEDEETDEALLSRYYETVNEPAFGGNMADYRQKVNAINGVGGTKVFPTWAGGGTVKCTIIASDWAKPSPELVNEVQSTMDPEENQGMGLGQAPIGHAVTIAGVDKVTVDVETTLTLAPGVTPGQVQSDVEAILDAYLLEQRKTWAAQTQIIIRMAQIDARMLTVQGVEDVTGTKLNGTEANFLLDEEEIPILGTVIINELEHHHHHH”, the protein production entry was “failed”. On to “MYELTEDFKLRKITKYELDGVDEREDLLVIPPSSKAGPCGNGCLFCYLLQNPPEMIYRVARHDTLNDPTLEERIRYARKHYDLWIRVTDTSGNVKFDENRIKSLYEAGLDEIQISVHTTKKDVRIKLMRNRHAGKLIDLLPLVAKHFRTIADIILTPGFNVDDIGEIIEDLDSMGVHEVRLFPVGVTKYNRFEIRPLTKEE”, for which the protein production result is recorded as “failed”.

As to “MYEPPNQFHCLDADVWIEIPNRVIGVTGNCYVGRDYIPKNGKTRYDVKVFVKKIKKEQENPDTLIKDNDLELSKSKSDDIGTLIEKGVNLRNFKKYDEALQIFEKVTELEPSNAQAWHNKGIILGILKKYNEARQAFEKAMEIEPGKNRRDCSSRHLRSARNRTSERNQGSNVEQ”, the protein production result was “failed”. “MYFSATLFNKYYKLLGTNDEGKLNLERTSSLAYFLALDQMQKDEEEPNAVINMYKDSLSRKNFMEKVGEIFVIAKNGSFEYQANILGCINKVEGGGNSMSSKTGKNFLSTQVISASSSPNPVGYPKRPAASFILELGFEIEGHKHGIKKSDSWKNNLMKFIEFRKCGTDTFPLIVFLLRDKQLNNNLDFNNAIREGLGSAYTQAVVDYLIVNAQVPSLVWDDLQNFATAPFTIDELDTELFMQDQPETNNLQPTVQVKEFKEIEIPNDISRNRIVYGAPGTGKSYKLNKDAKEFFPDDDLYIRVTLYPNYSYSQFVGTYKPTPIYKDVEGEFYKSDMVTSIGHGKEPLIDYTFVPGPFLIQLVNALKYPKSNFVIIIEEINRANAAAVFGDVFQLLDRKDDGESEYTITFNADVTNYLRKEGIFDLQIKIPKNLYIWATMNSADQGVTPLDTAFKRRWSFEYMPIDAGEGAVSSLEMELKFLENPILWNKFRKILNQKLKELMVPEDKLIGPFFMKSYELSNPESFKNKLLLYLRDDVLRHNATKFFKHQTFSDIVTAYDQGGNIFRTISKEELVRSE”: the protein production entry is on record as “not failed”.

The values are drawn from a protein production outcome set (Wang et al. 2014).
